Measured values: the nanobody polyreactivity screen of Harvey et al. (2022)

Assay: yeast display, Sf9 membrane polyspecificity reagent, FACS + sequencing; frameworks hold sequencing errors
In short: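 Polyreactivity labels are assigned by the sorting gate from which each nanobody was recovered. The gates were low and high (top ~1%), set on anti-HA fluorescence for expression and streptavidin fluorescence for reagent binding. Before sorting, galactose-induced (36–48 hours) yeast display cells were stained for 1 hour at 4 °C with 10% biotinylated, detergent-solubilized Sf9 membrane reagent.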

Row | Sequence | polyreactivity (PSR sort gate)
1 | QDQLVESGGGLVQAGGSLRLSCAASGSILLLNMGWYRQAPGKEMELVASIRWSGGITYYADSVKGRFTISRDNAKNTVYLQMNSLKPEDTAVYYCAARTYRYFGRYDYWGQGTQVTVSS | high polyreactivity
2 | QDQLVESGGGLVQAGGSLRLSCAASGSILVRNARGWYRQAPGKERELVASIDSGTSTNYADSVKGRFTISRDNAKTTVYLQLNSLKPEDTAVYYCAADWYYLWGRYYFWGQGTQVTVSS | high polyreactivity
3 | QDQLVESGGGLVQAGGSLRLSCAASGSISWVYSMGWYRQAPGKEREFVAAISESGDTYYADSVKGRFTISRDNAKNTVYLQMNSLKPEDTAVYYCAATSPDGVTYDYWGHGTQVTVSS | low polyreactivity
4 | QDQLVESGGGLVQAGGSLRLSCAASGSTFFGNAMGWSRQAPGKERELVAAISRGGGSTYYADSVKGRLTISRDNAKNTVYLQMNCLKPEDTAVYYCNADDPWTGTAVSTPNDSWGQGTQVTVSS | low polyreactivity
5 | QDQLVESGGGLVQAGGSLRLSCAASGSTFKYYAMGWYRQAPGKERELVAAISWTGGSTYYADSVKGRFTISRDNAKNTVYLQMNSLKPEDTAVYYCNAMGHVQGYDYWGQVTQVTVSS | high polyreactivity
6 | QDQLVESGGGLVQAGGSLRLSCAASGSTFPKYAMGWYRQAPGKERELVASISVTTGSTYYADSVKGRFTISRDNAKNTVYLQMNSLKPEDTAVYYCPKRTYSRKFRGAYNYWGQGTQVTVSS | high polyreactivity
7 | QDQLVESGGGLVQAGGSLRLSCAASGSTFPNNAMGWYREAPGKERELVATITTGGSTYYADSVKGRFTISRDNAKNTVYLQMNSLKPEDTAVYYCAADHLSYRRRYEYWGQGTQVTVSS | low polyreactivity
8 | QDQLVESGGGLVQAGGSLRLSCAASGSTFVPNAMGWYRQAPGKERELVAVISDSGVTTYYADSVKGRFTISRDNAKNTVYLQMNSLKPEDTAVYYCAARQDTWDAYLSTGEFDYWGQGTQVTVSS | high polyreactivity
9 | QDQLVESGGGLVQAGGSLRLSCAASGSTLNGNAMGWYRQAPGKERELVAAITTSGGSTYYADSVKGRFTISRDNAKNTVYLQMNSLKPEDTAVYYCNKLIGRRYGWANGYDYWGQGTQVTVSS | low polyreactivity
10 | QDQLVESGGGLVQAGGSLRLSCAASGSTVYFNAMGWYRPAPGKERELVASITSGGSTNYADSVKGRFTISRDNAKNTVYLQMNCLKPEDTAVYYCAAGLYLQGPLDYWGQGTQVTVSS | low polyreactivity
11 | QDQLVESGGGLVQAGGSLRLSCAASGTIFFGYSMGSYRQAPGKERDLVASISSADTTYYADSVKGRFTISRDNAKNTVYLQMNSLKPEDTAVYYCAAREGQLWEDGDYWGQGTQVTVSS | low polyreactivity
12 | QDQLVESGGGLVQAGGSLRLSCAASVSTFILNAMGWYRQAPGKERELVATISSSDTSTYYADSVKGRFTISRDNAKNTVYLQMNSLKPEDTAVYYCNADYYTTSYLQRVYHYGVEYDYWGQGTQVTVSS | low polyreactivity
13 | QDQLVESGGGLVQAGGSLRLSCAAYGSILGGNAMGWYRPAPGKERELVAAITFSGGGTYYADSVKGRFTISRDNAKNTVYLQMNSMKPEDTAVYYCAADKDGYTYEFDYWGQGTQVTVSS | low polyreactivity
14 | QDQLVESGGGLVQAGGSLRLSCAPSGFIFSNYAMGWYRHGPGKERELVAAISFTGSNTYYADSVKGRFTISRDYAKNTVYLKMNSLKPEDTAVYFCNAPLEWGVYAAQNWDEGYWGQGSQVTVSS | low polyreactivity
15 | QDQLVESGGGLVQAGGSLRLSCASSGFTFSKNAMGWYRQAPGKERELVAAISRGGGRTYYADSVKGRFTISRDNAKNTVYLQMNSLKPEDTAVYYCNVEKVGPGYDYWGQGTQVTVSS | high polyreactivity
16 | QDQLVESGGGLVQAGGSLRLSCASSGLIFYTSSMGWYSQAPGKESGLVAAITRSDSSTYYADSVKGRFTISRDNATNTVYLQMTSLKPEDPAVYYFATPSVFLFSEYDYWGQGTKVTVSS | low polyreactivity
17 | QDQLVESGGGLVQAGGSLRLSCASSGYIFYYNAMGWYRQAPGKEWELVAAITGDSGTYYADSVKGRFTISRDNAKNTFYFQMNCLKPEDTAVYYCNAYTFYQYYRWYVYWGQVTQVTVSS | low polyreactivity
18 | QDQLVESGGGLVQAGGSLRLSCDASGSIFRYYTMGWYRQAHGQERELVARISYSGGRTYYAVSVKGRFTISRDNAKNTVYLQMNSLKPEDTAVYYCNTVTRWVGKLEYWGHGTQVTVSS | high polyreactivity
19 | QDQLVESGGGLVQAGGSLRLTCAASGFNYRRNAMGWYRQAPGKERELVAAITASGGRTYYADSVKGRFTISRDNAKNTVYLQMNSLKPEDTAVDYCARDTAGFTRFSSKYDYWGQGTQVTLSS | high polyreactivity
20 | QDQLVESGGGLVQAGGSLRLTCAASGSTFGVYTMGWYRQAPGKERELVAAITKSGGSTYYADSVKGRFTISRDNAKNTVYLQMNSLKPEETAVYYCATDADRPPRTPDISYVSNFDYWGQGTQVTVSS | low polyreactivity
21 | QDQLVESGGGLVQAGGSLSLSCAASGSTFPYYAMGWSRPAPGKERELVAAISGSGGTTYYADSVKGRFTISRDNAKNTVYLQMNSLKPEDTAVYYCAVDIGVGYGYYYWGQGTQVTVSS | low polyreactivity
22 | QDQLVESGGGLVQAGGSLSLSCAASGSTFQPYTMGWYRQAPGKERELVAAITGRGGSTYYADSVKGRFTISRDNAKNTVYLQMNSLKPEDTAVYYCAAGAYRRNKSDYYYWGQGTQVTVSS | low polyreactivity

Row | Sequence | polyreactivity (PSR sort gate)
23 | QDQLVESGGGLVQAGGSLSLSCAAYGRIFSYNAMGWYRQAPGKERELVAAISYSGGRTYYADSVKGRFTISRDTAKNTVYLQMNSLKPEDTAVYYCAAEAHLAGYYRYYGGYGYDYWGQGTQVTVSS | high polyreactivity
24 | QDQLVESGGGLVQAGGSLSLSCADSGLTFGANTMGWYRQAPGKERELVATITQSVGRTYYADSVKGRFTISRDNAKNTVYLQMNSLKPEDTADYYCNAELYTVRVYTHPVYVRHDYWGQGTQVTVSS | high polyreactivity
25 | QDQLVESGGGLVQEGGSLRLSCAASVRIFGPYAMGWYRQAPGKERELLAAITRGGSTSYADSVKGRFTISRDNAKNTVYLQMNSLKPEDTAVYYCAADTLRWWDGFDYWGQGTQVTVST | low polyreactivity
26 | QDQLVESGGVLVQAGGSLRLSCAASGNIFAVYAMGWYRQAPGKERELVAAITTGTNTYADSVKGRFTISRDNAKNTVYLQMNSLKTEDTAVYYCAARSYRPLDYWGQGTQVTVSS | low polyreactivity
27 | QDQLVESRGGLVQAGCSLRLSCAASGFIFLHYTMGSYRQAPRKERELVAGITYGHGSTSYADSVKGRFTISRDNAKNTVYLQMNRLKPEDTAVYYCATRYWYRTSYQLYDYWGQGTQVTVSS | low polyreactivity
28 | QDQLVESRGGLVQAGGSLRLSCAASGRTFISNAMGWYRQAPGKERELVAADISWSGGSTYYADSVKGRFTISRDNAKNTVYLQMNIMKPEDTAVYYCNTVIRPYLAYTWSEIFDYWGQGTQVNVSS | low polyreactivity
29 | QDQLVESRGVLVQAGGSLRLTCAASGRTFYLNAMGWNRQATGKEREFVAAITWSSGSTYYADSVKGRFTISRDNAMNTVYLQMNSLKPEDTAVYYCAAAGRWSAYMYSWGQGTQVTVSS | high polyreactivity
30 | QDQLVESVGGLDQAGGSLPLSCDASGSIFPDYAMGWYRPAPGKERELVAAITSSGSTNNADSVKGLFTISRDNAKNTVYLQMNSLNPEDTAVYYCNAVVVQEESGYTRYDYWGQGTQVTVSS | low polyreactivity
31 | QDQLVESVGGLVQAGGSLRLSCAASGRTIDPNAMGWYRQAPGKERELVAAITRTGVRTYYADSVKGRFTISRDNAKNTVYLQMNSLKPEDTAVYYCAASYSGRQDRYPHYDYWGQGTQVTVSS | low polyreactivity
32 | QDQLVESVGGLVQAGGSLRLSCAASGSIFDQNAMGCSRHAPGKESELVAAITRGGSTKYADSVKGRFTISRDNAKNTVYLQMNSLKPEDTAVYYCARTDRRRYQPYEYWGPGTQVTVSS | low polyreactivity
33 | QDQLVESVGGLVQAGVSLRLSSASSGRTFWAYAMGWYRQAHGKERELVAAISRNGGSTYYADSVKGRFTISRDHAKNTVYLQMNSLKPEDTAVYYCAAESRYYYELGYWGQGTQVTVSS | high polyreactivity
34 | QDQLVETGGGLVQAGCSLRLSCAASGSIFTGYTMGWYRQAPGNEREFVAAIRATGGSTYYADSVKGRFTISRDNAKNTVYLQMNSLKPEDTAVFYCAVRSGGGSVRKRYGYWGQGTQVTVSS | high polyreactivity
35 | QDQLVETGGGLVQAGGCLRLSCAASGRNFFGYAMGWYRQAPGTERELLAAITQSGGRTYYADSVKGRFTISRDNAKNTVYLLMNSQKPEDTAVYYCAATWLGTRNLVHITLYYWGQGTQVTVSS | low polyreactivity
36 | QDQLVETGGGLVQAGGSLRISCADSGFTFGVNAMGWYREAPGKERELVAVITSGGNTYYADSVKGRFTISRDNAKNTDYCQMNSLKPEDTAVYYCAAYGRDSWDRDYWGQGTQVTVSS | low polyreactivity
37 | QDQLVETGGGLVQAGGSLRLSCAASGIIFYPNAMGWYRQAPGKERELVAAISWRSGSTYYADSVKGRFTISRDNAKNTVYLQMNSLKPEDTAVYYCAADRRRSYIWRYDYWGQGTQVTVSS | low polyreactivity
38 | QDQLVETGGGLVQARGSLRLSCAASGITFDKYAMGWYRQAPGKERELVAAISGSDGSTYYADSVKGRFTISRDNAKNTVYLQMNSLKQEDTSVYYCAAESEYAGTFEYDYWGQGTQVSVSS | low polyreactivity
39 | QDQLVETVGVLDKAGGSLRLSCAASGRTFAIYAMAWYRQAPGKEREFVAASSWSGGDSYYADSVKGRFTISRDNAKNSVYLQMNSLKPEHTAVYYCAARDNDYEGRYLQYDLDYWGQGTQVTVST | low polyreactivity
40 | QDQLVKSGGGLVQAGGSLLLSCAASGHTFSGYVMGWYRPAHGKERELVAAIRSGGSTYYADSVKGRFTISRDNAKKTVYLQMNSLKPEDTAVYYCAKSVTRYRTSAYGYWGQGTQVTVSS | high polyreactivity
41 | QDQLVQSRGGLVQAGGSLRISSAASGGTYFGYAMGWKRQAPGKERELVAAIRWSDGRTYYADSVKGRFTISRDNAKYTVYLQMNSLNPEDTAVYYCNADDARLFDYWGQGTQVTVSS | low polyreactivity
42 | QDQLVVSGGGLVQAGGSLRLSCAAYGFIVRSYDMGWYIQAPGKEREMVAAITSDVNSYYADSVKGRFTISRDNAKNTVYLQMNSLKPEDTAVYYFNADAVVYRDYQDYDYWGQGTQVTVSS | low polyreactivity
43 | QDQLVYSGGGLVQAGGSLSISCASSVSTFGGYAMGWYRQAPGKERELVSAITWSAGSTYADSVKGRFTISRDNAKNTVYLQMTSLKPEDTAVYYCAAYPYVGYVSLSAYDYWGQGTQVTVSS | low polyreactivity
